Source: patent US20180258181A1
Residue numbers refer to the chain shown, from its start.

B1: MOR06631 IgG (antibody, V domains shown)
VH: QVQLVQSGAEVKKPGESLKISCKGSGYSFTNYWIGWVRQMPGKGLEWMGFIWPVDSWTQYSPSFQGQVTISADKSISTAYLQWSSLKASDTAMYYCARYGHGMYGGALDVWGQGTLVTVSS
VL: DIVLTQSPATLSLSPGERATLSCRASQSVRSSRLAWYQQKPGQAPRLLIYGASKRATGVPARFSGSGSGTDFTLTISSLEPEDFATYYCQQYYDFPPTFGQGTKVEIKR
B2: MOR06669 IgG (antibody, V domains shown)
VH: B1 VH with F50I, V54I, W57F
VL: B1 VL
B3: MOR07111 IgG (antibody, V domains shown)
VH: B1 VH with F50V, W52M, V54S, W57Y, Q59R
VL: B1 VL with T86V, Y92F, D94S, F95K, P97I
B4: MOR06626 IgG (antibody, V domains shown)
VH: QVQLVQSGAEVKKPGASVKVSCKASGYTFTGNYINWVRQAPGQGLEWMGIINPTKGWTLYAQKFQGRVTMTRDTSISTAYMELSSLRSEDTAVYYCARWHHGTWIFDYWGQGTLVTVSS
VL: DIVLTQPPSVSGAPGQRVTISCSGSSSNIGSNYVSWYQQLPGTAPKLLIYNDNQRPSGVPDRFSGSKSGTSASLAITGLQSEDEADYYCSTYDRRTFSVFGGGTKLTVLG
B5: MOR06638 IgG (antibody, V domains shown)
VH: B4 VH with T54H, K55G, W57D, L59K
VL: DIVLTQPPSVSGAPGQRVTISCSGSSSNIGSNYVSWYQQLPGTAPKLLIYNDNQRPSGVPDRFSGSKSGTSASLAITGLQSEDEADYYCSSWDRADGSYVFGGGTKLTVLG
B6: MOR06657 IgG (antibody, V domains shown)
VH: QVQLVQSGAEVKKPGSSVKVSCKASGGTFSSYYFSWVRQAPGQGLEWMGGIIPKFGSANYAQKFQGRVTITADESTSTAYMELSSLRSEDTAVYYCARRTSMDYWGQGTLVTVSS
VL: DIALTQPASVSGSPGQSITISCTGTSSDVGGYNYVSWYQQHPGKAPKLMIYSVSKRPSGVSNRFSGSKSGNTASLTISGLQAEDEADYYCATWDHSQMGKVFGGGTKLTVLG

These binders were tested against mesothelin on OVCAR-3 cells (UniProt Q13421) (assay: FACS titration, EC50 on OVCAR-3 against EC50 on NCI-H226).

x-fold different EC50 on OVCAR-3 vs. NCI-H226 [fold] | Binder
0.5 | B1
3.4 | B2
1.7 | B3
22 | B4
22.1 | B5
14 | B6

These binders were tested against mesothelin on OVCAR-3 cells (UniProt Q13421) (assay: FACS titration, IgG on OVCAR-3 cells).

EC50 [nM] | Binder
9.68 | B4
0.53 | B6
